The text below walks through data of patent US5693758A, “Immunoglobulin E competitor” (501 Research Corporation Limited, priority 1987, dated 1997).

In assay [1] the test system is Fc receptors of mast cells. As to conditions: cited from earlier work; for blocking activity: reported by Bennich.
The subject of assay [2] is FcER2 positive RPMI 8866 B cells. Briefly: Indirect immunofluorescence binding of rE peptides to RPMI 8866 B cells (FACScan). Also noted: species or system human. As to conditions: for % positive cells: RPMI 8866 B cells, indirect immunofluorescence, 0.1-200 μg/ml ligand, 40 min 4° C., mean ±S.D. of 9 experiments; for binding to FcER2 positive RPMI 8866 B cells (in words): further indirect immunofluorescence studies. The method, then: RPMl 8866 cells were incubated with different concentrations of rE peptides and indirect immuno-fluorescence was performed.
For indirect immunofluorescence the results of which are summarised in Table VII, 0.5×10^6 RPMI 8866 cells (>99% FcER2 positive) in staining buffer (RPMI 1640 - 2.5% fetal bovine serum, containing 0.01% azide) were incubated with various concentrations (0.1-200 μg/ml) of purified rE fragments or native IgE(PS) for 40 minutes at 4° C. After washing, the cells were incubated for 30 minutes at 4° C. with the appropriate fluorescein isothiocyanate (FITC)-conjugated anti-Fc mAB or with an affinity-purified goat anti-human IgE antibody (10 μg/ml). After extensive washing, the percentage of cells binding IgE or the rE fragments was evaluated by a FACScan (Becton Dickinson, Mountain View, Calif.).

“Asp-Ser-Asn-Pro-Arg (DSNPR; printed: Asp-Ser-Asn-Pro-Arg)”: in assay [1], the blocking activity result was “neither of the peptides Asp-Ser-Asp-Pro-Arg nor Asp-Ser-Asn-Pro-Arg has any blocking activity”. As for “Asp-Ser-Asp-Pro-Arg (DSDPR; printed: Asp-Ser-Asp-Pro-Arg) [HEPP, Human Immunoglobulin E Polypeptide, pentapeptide from IgE heavy chain 330 to 334]”, the blocking activity result in assay [1] is reported as “neither of the peptides Asp-Ser-Asp-Pro-Arg nor Asp-Ser-Asn-Pro-Arg has any blocking activity”. The specific activity result in assay [1] (reported) was “low”.

B1: rE2: recombinant IgE peptide Asp 218-Val 336 (CH2) (protein, UniProt P01854 218-336, looked up, fragment)
chain: SAYLSRPSPFDLFIRKSPTITCLVVDLAPSKGTVNLTWSRASGKPVNHSTRKEEKQRNGTLTVTSTLPVGTRDWIEGETYQCRVTHPHLPRALMRSTTKTSGPRAAPEVYAFATPEWPG
On to B1, for which, in assay [2], the “% positive cells” value worked out at 2 ± 1% and the “binding to FcER2 positive RPMI 8866 B cells (in words)” value (“binding” below) is on record as “no detectable binding”.

B2: rE2'-3': recombinant IgE peptide Gln 301-Arg 376 (protein, UniProt P01854 301-376, looked up, fragment)
chain: VTHPHLPRALMRSTTKTSGPRAAPEVYAFATPEWPGSRDKRTLACLIQNFMPEDISVQWLHNEVQLPDARHSTTQP
With B2, in assay [2], the “% positive cells” value was found to be 2 ± 1% and the “binding” value was “no detectable binding”.

B3: rE2-3: recombinant IgE peptide Asp 218-Pro 439 (CH2 and CH3) (protein, UniProt P01854 218-439, looked up, fragment)
chain: SAYLSRPSPFDLFIRKSPTITCLVVDLAPSKGTVNLTWSRASGKPVNHSTRKEEKQRNGTLTVTSTLPVGTRDWIEGETYQCRVTHPHLPRALMRSTTKTSGPRAAPEVYAFATPEWPGSRDKRTLACLIQNFMPEDISVQWLHNEVQLPDARHSTTQPRKTKGSGFFVFSRLEVTRAEWEQKDEFICRAVHEAASPSQTVQRAVSVNPGLAGGSAQSQRAP
Take B3: in assay [2], the “% positive cells” value is on record as 3 ± 1% and the “binding” value is given as “no detectable binding”.
